Assay results taken from the supplement of paper PMC10266784.

B1: library; numbered along this chain (parent)
chain: MAAAAAAAAEQQSSNGPVKKSMREKAVERRSVNKEHNSNFKAGYIPIDEDRLHKTGLRGRKGNLAICVIILLFILAVINLIITLVIWAVIRIGPNGCDSMEFHESGLLRFKQVSDMGVIHPLYKSTVGGRRNENLVITGNNQPIVFQQGTTKLSVENNKTSITSDIGMQFFDPRTQNILFSTDYETHEFHLPSGVKSLNVQKASTERITSNATSDLNIKVDGRAIVRGNEGVFIMGKTIEFHMGGNMELKAENSIILNGSVMVSTTRLPSSSSGDQLGSGDWVRYKLCMCADGTLFKVQVTSQNMGCQISDNPCGNTH

Variants of: B1
Assay: SGCB cell-surface expression functional score (HA stain, bin4 vs bin1, normalised to synonymous) (log10 ratio); higher = more cell-surface SGCB (functional)
Protocol: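 Deep mutational scan of full-length human SGCB (YFP-SGCB-HA, NNN codon sublibraries A-F) delivered by lentivirus at low MOI into ADG-HEK293 cells stably expressing SGCA, SGCD and SGCG. YFP-positive cells were stained for surface HA on unpermeabilized cells and FACS-sorted into bins. The functional score is log10(frequency in high bin 4 / frequency in low bin 1), normalised per chunk so that synonymous variants have mean 0 and SD 0.5. Scores are the median over codons and over duplicate biological replicates; scores below -0.5 are called non-functional. Scale: negative means deleterious.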

SGCB cell-surface expression functional score (log10), by site and new letter:
A76: V 0; K -0.81; L 0.08; G -0.2; F 0.33; Q 0.3; H -0.07; E 0.02; M -0.23; N 0.08; R -0.35; P -0.1; D -0.4; I 0.22; C 0.13; S 0.05; Y 0.25; T -0.35; W 0.14
L71: N 0.19; T 0.07; R -0.37; P -0.04; Y -0.5; K 0.36; I -0.45; S 0.06; F -0.14; Q 0.12; G 0.23; H 0.06; D -0.08; V 0.22; E 0.1; M 0.01; A 0.26; W 0.61; C -0.37
G62: H 0.18; P 0.36; N -0.29; Q 0.34; M 0.13; C 0.33; D 0.29; K -0.29; F 0.5; I 0.26; S 0.18; A 0.02; W -0.11; V -0.21; T -0.09; L 0.53; E 0.11; R 0.23; Y -0.05
G59: I -0.01; T 0.25; Q -0.24; M 0.31; P 0.12; K 0.12; L 0.09; N 0; Y 0.17; V 0.33; R -0.17; S -0.13
I74: M -0.6; T -0.02; L 0.44; K 0.07; F -0.25; S -0.05; H 0.05; W 0.64; P -0.18; R -1.42; D -0.26; Q 0; N 0.04; V -0.01; Y -0.07; C 0.07; A 0; E 0.75; G 0.2
K61: V 0.07; L 0.26; E -0.08; P -0.2; C 0.35; M -0.03; S 0.07; R -0.23; I 0.48; G 0.03; F 0.7; A -0.12; H -0.27; Y 0.64; N -0.39; W 0.05; T 0.03; D -0.36; Q -0.08
R60: V -0.09; F -0.05; Q 0.38; A -0.28; I 0.5; G -0.33; C 0.47; E 0.4; D 0.39; Y -0.12; H -0.21; W -0.101; T 0.01; P -0.19; S 0.18; K 0.08; N 0.1; L 0.11
C67: A 0.57; G 0.18; D 0.11; M -0.01; S 0.04; W 0.43; L 0.25; Q 0.4; T -0.03; R 0.08; I 0.33; N 0.19; Y 0.04; F -0.08; H 0.38; E 0.39; P 0.26; K 0.29; V 0.28
F73: E 0.42; K 0.54; T -0.22; P 0.07; R -0.59; N 0.47; V -0.23; Q 0.6; D 0.36; I -0.11; Y 0.84; A 0.13; M -0.01; S -0.15; H 0.54; L 0.03; G 0.22; C 0.34
N63: P 0.32; A -0.08; T 0.43; I -0.14; Y 0.25; D -0.06; C -0.16; R 0.07; W 0.22; M -0.11; E -0.28; S -0.25; K 0.24; V -0.44; G 0.13; L 0.03; F 0.08; Q 0.11; H 0.28
V68: P 0; G 0.24; I 0.05; S 0.36; Q -0.15; E -0.1; W 0.12; L -0.04; C 0.91; H -0.35; K 0; A -0.01; D -0.25; T 0.29; Y -0.25; N 0.03; R 0.06; M -0.35; F 0.55
I70: D -0.14; N 0.07; V 0.53; Q 0.06; K 0.19; E -0.22; T -0.22; H -0.21; Y -0.14; W 1.07; M 0.77; R -0.16; P 0.16; C -0.3; F -0.2; L -0.1; S 0.36; G 0.35; A 0.41
V77: A -0.12
A65: F 0.21; S 0.01; W 0.48; T -0.01; D 0.08; C 0.32; L 0.15; N 0.06; E -0.2; G -0.03; Q -0.13; M -0.02; Y 0.12; H -0.17; R -0.07; K 0.51; V 0.3; I 0.15; P -0.28
L64: D -0.4; M -1.4; S 0.31; R 0.07; E -0.26; K 0.15; G -0.2; F 0.43; A -0.31; T 0.11; Y 0.16; P -0.26; H 0.16; I -0.1; Q 0.03; W -0.254; N 0.28; C 0.26; V 0.25
I69: L 0.2; T -0.01; M 0.22; Q 0.03; S 0.09; G 0.2; V -0.05; Y 0.41; K -0.04; F 0.52; W 0.3; D -0.11; E 0.15; C 0.05; A -0.17; H 0.03; P 0.36; R 0.11; N 0.62
L72: Q -0.21; Y -0.04; E -0.02; K -0.18; H -0.05; V 0.27; D -0.14; G 0.44; N -0.44; I 0.41; T 0.45; F 0.07; P -0.11; W 0.28; S -0.07; C 0.42; A -0.23; R -0.09; M 0.13
I66: D 0; A -0.11; F -0.03; N 0.47; P -0.35; V 0.2; E 0.12; Y 0.29; W 0.01; T 0.03; K 0.5; Q -0.15; G 0; S 0.07; L -0.78; H -0.2; C 0.65; R 0.43; M 0.3
L75: Y -0.25; H 0.2; E -0.08; Q -0.18; S 0.09; R -0.32; C -0.06; F 0.18; M 0.77; T 0.27; K 0.2; N -0.4; P 0; W 0.39; G -0.34; V -0.01; D -0.31; I 0.09; A -0.22
